Article PMC7782850, “Metaxins are core components of mitochondrial transport adaptor complexes” (Nature Communications, 2021)

T1: His-MIRO-1 (C. elegans, UniProt Q94263 1-602)
T1 construct: C. elegans MIRO-1, residues 1-602; source: E. coli BL21 (DE3) codon plus, purified (Ni2+-Sepharose, size-exclusion chromatography)
T1 sequence (looked up): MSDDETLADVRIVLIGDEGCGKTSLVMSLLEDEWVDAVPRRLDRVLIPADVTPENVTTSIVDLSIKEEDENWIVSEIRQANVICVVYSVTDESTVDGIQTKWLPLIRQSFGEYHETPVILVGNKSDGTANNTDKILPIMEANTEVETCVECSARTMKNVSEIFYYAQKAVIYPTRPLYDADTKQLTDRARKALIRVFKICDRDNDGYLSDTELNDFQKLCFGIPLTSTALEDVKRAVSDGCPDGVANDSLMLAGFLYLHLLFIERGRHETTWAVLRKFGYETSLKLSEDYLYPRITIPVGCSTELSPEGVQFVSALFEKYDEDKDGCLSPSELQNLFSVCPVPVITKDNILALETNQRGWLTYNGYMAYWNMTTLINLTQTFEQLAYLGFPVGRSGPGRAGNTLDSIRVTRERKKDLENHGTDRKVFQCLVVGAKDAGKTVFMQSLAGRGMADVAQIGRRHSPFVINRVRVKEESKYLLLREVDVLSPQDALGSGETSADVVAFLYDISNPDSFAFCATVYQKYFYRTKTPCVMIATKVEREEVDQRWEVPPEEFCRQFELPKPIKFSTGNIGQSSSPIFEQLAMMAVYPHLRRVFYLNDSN

T2: Trx-MTX-1 (C. elegans, UniProt O45503 1-281)
T2 construct: C. elegans MTX-1, residues 1-281
T2 sequence (looked up): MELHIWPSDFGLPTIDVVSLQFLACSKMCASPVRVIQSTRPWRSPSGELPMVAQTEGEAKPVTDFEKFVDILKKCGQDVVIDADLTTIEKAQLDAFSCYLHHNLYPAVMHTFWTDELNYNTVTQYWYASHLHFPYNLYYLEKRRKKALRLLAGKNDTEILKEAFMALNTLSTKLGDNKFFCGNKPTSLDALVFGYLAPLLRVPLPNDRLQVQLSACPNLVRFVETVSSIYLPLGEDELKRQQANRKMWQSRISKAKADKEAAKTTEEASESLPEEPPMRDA


Columns and labels:
[1] = molecular target: T1, His-MIRO-1; assay: SEC; analytical gel filtration of purified proteins, Superdex-200 10/300, 25 mM HEPES pH 7.4, 100 mM NaCl, 1 mM DTT, 1 mM EDTA; fractions analysed by SDS-PAGE with Coomassie-blue staining; details: both partners purified
[2] = molecular target: T2, Trx-MTX-1; assay: as above; details: both partners purified

binding result [1] | binding result [2] | Binder
binds |  | MTX-1/2 complex (formed by co-expression of Trx-MTX-1 and Trx-MTX-2) (complex, C. elegans, C. elegans MTX-1, residues 1-281; C. elegans MTX-2, full length; Complex formed beforehand by co-expression of the two chains; also called MTX-1/MTX-2 complex; metaxin complex; source: E. coli BL21 (DE3) codon plus, co-expressed (pRSFDuet-1); in cell lysate (pull-down); purified (Ni2+-Sepharose, size-exclusion chromatography) for gel filtration) chain 1: MELHIWPSDFGLPTIDVVSLQFLACSKMCASPVRVIQSTRPWRSPSGELPMVAQTEGEAKPVTDFEKFVDILKKCGQDVVIDADLTTIEKAQLDAFSCYLHHNLYPAVMHTFWTDELNYNTVTQYWYASHLHFPYNLYYLEKRRKKALRLLAGKNDTEILKEAFMALNTLSTKLGDNKFFCGNKPTSLDALVFGYLAPLLRVPLPNDRLQVQLSACPNLVRFVETVSSIYLPLGEDELKRQQANRKMWQSRISKAKADKEAAKTTEEASESLPEEPPMRDA chain 2: MSSSGVITQLVTDALSMNAAQDWEDVSLFTPYLNDQALMYDFADCLAVQTFLRMTSLPFNVRQRPNVDFISPDGVVPLLKINKTLITGFNAIVDFVHKKGVTLTSHLSETQVADMRANISMIEHLLTTVEKFVLWNHDETYDKVTKLRYGSVYHWPLSSVLPFVKRRKILEELSDKDWDTKTMDEVGEQADKVFRALSAQLGSQKYLTGDLPTEADALLFGHMYTLITVR
binds | binds | Trx-MTX-2 (natural protein, C. elegans, UniProt P34599 1-230, looked up, C. elegans MTX-2, full length; source: E. coli BL21 (DE3) codon plus; in cell lysate (pull-down); purified (Ni2+-Sepharose, size-exclusion chromatography) for gel filtration) MSSSGVITQLVTDALSMNAAQDWEDVSLFTPYLNDQALMYDFADCLAVQTFLRMTSLPFNVRQRPNVDFISPDGVVPLLKINKTLITGFNAIVDFVHKKGVTLTSHLSETQVADMRANISMIEHLLTTVEKFVLWNHDETYDKVTKLRYGSVYHWPLSSVLPFVKRRKILEELSDKDWDTKTMDEVGEQADKVFRALSAQLGSQKYLTGDLPTEADALLFGHMYTLITVR
